Measurements from article PMC11695723, “MCM2-7 ring closure involves the Mcm5 C-terminus and triggers Mcm4 ATP hydrolysis” (Nature Communications, 2025).

How the values were obtained:
Conditions in all cases: both partners purified
Mcm3 (HA-tagged) = biological target: T1, Mcm3 (HA-tagged) (S. cerevisiae, UniProt P24279 1-971); assay: pull-down; 150 nM MCM2-7 alone in pre-RC buffer, bound to anti-HA magnetic beads by the HA-tag on Mcm3, low salt wash (pre-RC buffer), HA peptide elution, silver stain
T1 construct: Mcm3, S. cerevisiae; subunit of the MCM2-7 hexamer; bait of the anti-HA bead pulldowns; source: S. cerevisiae, galactose-induced, purified as a subunit of MCM2-7 (anti-HA beads, HA peptide, gel filtration)
T1 sequence (P24279 whole entry): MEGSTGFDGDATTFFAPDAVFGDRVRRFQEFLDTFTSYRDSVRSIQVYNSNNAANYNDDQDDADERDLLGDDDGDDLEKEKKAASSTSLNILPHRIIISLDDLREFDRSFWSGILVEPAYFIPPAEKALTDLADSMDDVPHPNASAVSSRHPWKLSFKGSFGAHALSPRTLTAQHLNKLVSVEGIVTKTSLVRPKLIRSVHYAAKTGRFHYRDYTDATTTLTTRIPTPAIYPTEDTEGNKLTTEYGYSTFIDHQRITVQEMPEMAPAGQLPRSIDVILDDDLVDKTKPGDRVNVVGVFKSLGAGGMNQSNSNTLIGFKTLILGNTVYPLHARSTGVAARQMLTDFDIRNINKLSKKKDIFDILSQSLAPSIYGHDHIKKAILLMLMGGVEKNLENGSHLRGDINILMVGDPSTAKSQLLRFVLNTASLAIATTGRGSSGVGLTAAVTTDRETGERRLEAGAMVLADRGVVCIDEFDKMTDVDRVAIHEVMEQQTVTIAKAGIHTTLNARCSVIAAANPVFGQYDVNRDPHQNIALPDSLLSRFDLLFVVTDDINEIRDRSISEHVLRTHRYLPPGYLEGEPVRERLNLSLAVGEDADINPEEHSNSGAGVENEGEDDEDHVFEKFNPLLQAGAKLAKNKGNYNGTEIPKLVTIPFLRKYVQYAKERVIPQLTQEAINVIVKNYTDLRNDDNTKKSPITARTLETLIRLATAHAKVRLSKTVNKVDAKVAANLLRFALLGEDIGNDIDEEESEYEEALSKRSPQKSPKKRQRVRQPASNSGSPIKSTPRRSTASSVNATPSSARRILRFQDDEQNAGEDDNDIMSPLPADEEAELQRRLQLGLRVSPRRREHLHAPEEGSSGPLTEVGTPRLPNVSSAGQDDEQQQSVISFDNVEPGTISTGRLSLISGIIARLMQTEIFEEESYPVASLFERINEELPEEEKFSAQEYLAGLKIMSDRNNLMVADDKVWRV

Mcm5 = biological target: T2, Mcm5 (S. cerevisiae, UniProt P29496 1-775); assay: cryo-EM structure; closed-gate OCCM (ORC-Cdc6-Cdt1-MCM2-7) on ARS1 DNA with ATPγS; focused 3D classification of the particles of ref. 13; about 10% of the particles; 6.1 Å
T2 construct: Mcm5, S. cerevisiae; subunit of the MCM2-7 hexamer; source: S. cerevisiae, galactose-induced, purified as a subunit of MCM2-7 (anti-HA beads, HA peptide, gel filtration)
T2 sequence: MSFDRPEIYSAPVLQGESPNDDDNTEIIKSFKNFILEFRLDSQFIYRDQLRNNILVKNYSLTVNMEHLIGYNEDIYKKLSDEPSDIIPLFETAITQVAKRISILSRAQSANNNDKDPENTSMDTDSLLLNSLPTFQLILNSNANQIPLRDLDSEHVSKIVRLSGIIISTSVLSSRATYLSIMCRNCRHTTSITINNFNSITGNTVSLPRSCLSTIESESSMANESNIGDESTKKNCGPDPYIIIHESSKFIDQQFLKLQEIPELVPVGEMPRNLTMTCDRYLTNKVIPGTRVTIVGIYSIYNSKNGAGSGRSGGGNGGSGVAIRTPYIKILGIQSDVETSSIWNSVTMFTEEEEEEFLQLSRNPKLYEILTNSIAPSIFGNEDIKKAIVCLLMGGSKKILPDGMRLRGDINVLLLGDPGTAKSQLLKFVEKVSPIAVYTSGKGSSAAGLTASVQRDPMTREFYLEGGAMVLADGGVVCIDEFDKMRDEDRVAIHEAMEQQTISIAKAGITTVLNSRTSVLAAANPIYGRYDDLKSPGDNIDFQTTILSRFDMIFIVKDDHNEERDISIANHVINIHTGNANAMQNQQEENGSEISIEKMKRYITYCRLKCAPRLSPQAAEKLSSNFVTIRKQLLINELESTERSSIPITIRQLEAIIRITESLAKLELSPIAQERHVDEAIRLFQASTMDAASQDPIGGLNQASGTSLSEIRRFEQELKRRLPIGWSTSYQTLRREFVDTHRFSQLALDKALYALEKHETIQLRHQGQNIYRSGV

[1] = biological target: T3, Origin Recognition Complex (ORC) (UniProt P54784 1-914; P32833 1-620; P54790 1-616; P54791 1-529; P50874 1-479; P38826 …); assay: as above
T3 construct: Orc1; Orc2; Orc3; Orc4; Orc5; Orc6; in all assays ORC stood with ARS1 DNA; source: Hi-5 cells, baculovirus (Orc1,6; Orc2,5; Orc3,4), purified (ammonium sulphate, SP Sepharose, Mono Q, Superdex 200); copies: + + + + +

MCM2-7 (wild type) = biological target: T4, MCM2-7 (wild type) (S. cerevisiae, UniProt P29469 1-868; P24279 1-971; P30665 1-933; P29496 1-775; P53091 1-1017; P38132 …); assay: pull-down; pre-RC pulldown: 150 nM ORC, 300 nM Cdc6, 150 nM Cdt1, 150 nM MCM2-7 and 200 nM 290 bp ARS1 DNA in solution, anti-HA beads (HA-Mcm3), low salt wash, HA peptide elution
T4 construct: Mcm2, S. cerevisiae; Mcm3, S. cerevisiae; Mcm4, S. cerevisiae; Mcm5, S. cerevisiae; Mcm6, S. cerevisiae; Mcm7, S. cerevisiae; hetero-hexamer; plasmids and strains are in Supplementary Data 1; also called WT MCM2-7; copies: + + + + +
T4 sequence (P29469 whole entry, chain 1 of 3): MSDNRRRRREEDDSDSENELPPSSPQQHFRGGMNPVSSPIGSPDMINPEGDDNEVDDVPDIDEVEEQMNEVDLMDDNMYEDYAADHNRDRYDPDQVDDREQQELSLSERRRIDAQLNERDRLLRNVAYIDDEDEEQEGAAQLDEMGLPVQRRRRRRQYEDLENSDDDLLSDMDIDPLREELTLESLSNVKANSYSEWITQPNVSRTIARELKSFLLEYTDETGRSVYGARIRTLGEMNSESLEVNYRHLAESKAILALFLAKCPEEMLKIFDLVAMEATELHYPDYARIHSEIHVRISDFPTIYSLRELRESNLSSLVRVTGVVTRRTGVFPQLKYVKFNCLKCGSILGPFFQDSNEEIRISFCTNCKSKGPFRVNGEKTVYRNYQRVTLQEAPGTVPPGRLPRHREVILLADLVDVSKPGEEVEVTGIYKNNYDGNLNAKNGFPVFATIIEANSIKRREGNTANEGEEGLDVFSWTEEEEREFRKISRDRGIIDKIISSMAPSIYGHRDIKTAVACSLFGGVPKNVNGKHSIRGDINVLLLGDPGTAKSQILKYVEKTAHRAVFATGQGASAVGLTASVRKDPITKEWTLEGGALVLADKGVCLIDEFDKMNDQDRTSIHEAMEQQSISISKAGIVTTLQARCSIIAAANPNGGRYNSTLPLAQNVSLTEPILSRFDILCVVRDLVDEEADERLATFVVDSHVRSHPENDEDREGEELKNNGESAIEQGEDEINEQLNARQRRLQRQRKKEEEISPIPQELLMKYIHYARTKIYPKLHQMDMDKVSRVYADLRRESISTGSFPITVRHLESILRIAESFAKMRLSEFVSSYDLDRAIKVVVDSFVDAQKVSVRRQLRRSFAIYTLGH
T4 sequence (P24279 whole entry, chain 2 of 3): as the sequence (P24279 whole entry) above
T4 sequence (P53091 whole entry, chain 5 of 3): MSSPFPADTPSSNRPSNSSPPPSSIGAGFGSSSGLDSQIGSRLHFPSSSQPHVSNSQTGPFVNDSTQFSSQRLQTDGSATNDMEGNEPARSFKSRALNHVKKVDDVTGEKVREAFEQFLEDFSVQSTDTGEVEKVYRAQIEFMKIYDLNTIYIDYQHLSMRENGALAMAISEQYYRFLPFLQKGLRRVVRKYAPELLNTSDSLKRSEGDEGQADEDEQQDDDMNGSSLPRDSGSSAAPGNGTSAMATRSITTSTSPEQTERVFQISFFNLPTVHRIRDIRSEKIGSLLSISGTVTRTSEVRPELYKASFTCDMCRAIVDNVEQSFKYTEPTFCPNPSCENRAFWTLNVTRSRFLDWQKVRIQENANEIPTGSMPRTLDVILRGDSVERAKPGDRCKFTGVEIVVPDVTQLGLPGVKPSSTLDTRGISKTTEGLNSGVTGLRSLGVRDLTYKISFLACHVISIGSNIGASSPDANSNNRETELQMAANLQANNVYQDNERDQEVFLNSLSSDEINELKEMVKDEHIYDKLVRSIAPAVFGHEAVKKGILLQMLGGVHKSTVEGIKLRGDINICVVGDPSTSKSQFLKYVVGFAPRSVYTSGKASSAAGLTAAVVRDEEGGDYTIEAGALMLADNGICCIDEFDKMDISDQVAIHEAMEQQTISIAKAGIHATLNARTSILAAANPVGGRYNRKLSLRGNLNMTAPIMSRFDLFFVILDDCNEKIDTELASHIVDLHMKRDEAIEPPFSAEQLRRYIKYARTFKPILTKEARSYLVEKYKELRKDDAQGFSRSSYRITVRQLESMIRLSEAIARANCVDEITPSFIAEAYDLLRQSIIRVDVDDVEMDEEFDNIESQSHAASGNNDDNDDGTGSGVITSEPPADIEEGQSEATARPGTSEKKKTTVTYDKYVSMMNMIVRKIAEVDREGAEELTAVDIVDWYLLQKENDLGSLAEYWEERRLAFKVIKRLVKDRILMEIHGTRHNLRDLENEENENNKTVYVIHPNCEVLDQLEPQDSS

MCM2-7-ΔC5 = biological target: T5, MCM2-7-ΔC5 (S. cerevisiae, UniProt P29469 1-868; P24279 1-971; P30665 1-933; P29496 1-692; P53091 1-1017; P38132 …); assay: as above
T5 construct: Mcm2, S. cerevisiae; Mcm3, S. cerevisiae; Mcm4, S. cerevisiae; Mcm5, S. cerevisiae, deletion of residues 693-775 (C-terminal extension C5: linker and WHD); Mcm6, S. cerevisiae; Mcm7, S. cerevisiae; also called mcm5 (Δ693-775); copies: + + + + +
T5 sequence (P29469 whole entry, stated change not applied, chain 1 of 3, the tested form may be a part): as the sequence (P29469 whole entry, chain 1 of 3) above
T5 sequence (P24279 whole entry, stated change not applied, chain 2 of 3, the tested form may be a part): as the sequence (P24279 whole entry) above
T5 sequence (P53091 whole entry, stated change not applied, chain 5 of 3, the tested form may be a part): as the sequence (P53091 whole entry, chain 5 of 3) above

Mcm4 = biological target: T6, Mcm4 (S. cerevisiae, UniProt P30665 1-933); assay: cryo-EM structure; closed-gate OCCM (ORC-Cdc6-Cdt1-MCM2-7) on ARS1 DNA with ATPγS; focused 3D classification of the particles of ref. 13; about 10% of the particles; 6.1 Å
T6 construct: Mcm4, S. cerevisiae; subunit of the MCM2-7 hexamer; source: S. cerevisiae, galactose-induced, purified as a subunit of MCM2-7 (anti-HA beads, HA peptide, gel filtration)
T6 sequence: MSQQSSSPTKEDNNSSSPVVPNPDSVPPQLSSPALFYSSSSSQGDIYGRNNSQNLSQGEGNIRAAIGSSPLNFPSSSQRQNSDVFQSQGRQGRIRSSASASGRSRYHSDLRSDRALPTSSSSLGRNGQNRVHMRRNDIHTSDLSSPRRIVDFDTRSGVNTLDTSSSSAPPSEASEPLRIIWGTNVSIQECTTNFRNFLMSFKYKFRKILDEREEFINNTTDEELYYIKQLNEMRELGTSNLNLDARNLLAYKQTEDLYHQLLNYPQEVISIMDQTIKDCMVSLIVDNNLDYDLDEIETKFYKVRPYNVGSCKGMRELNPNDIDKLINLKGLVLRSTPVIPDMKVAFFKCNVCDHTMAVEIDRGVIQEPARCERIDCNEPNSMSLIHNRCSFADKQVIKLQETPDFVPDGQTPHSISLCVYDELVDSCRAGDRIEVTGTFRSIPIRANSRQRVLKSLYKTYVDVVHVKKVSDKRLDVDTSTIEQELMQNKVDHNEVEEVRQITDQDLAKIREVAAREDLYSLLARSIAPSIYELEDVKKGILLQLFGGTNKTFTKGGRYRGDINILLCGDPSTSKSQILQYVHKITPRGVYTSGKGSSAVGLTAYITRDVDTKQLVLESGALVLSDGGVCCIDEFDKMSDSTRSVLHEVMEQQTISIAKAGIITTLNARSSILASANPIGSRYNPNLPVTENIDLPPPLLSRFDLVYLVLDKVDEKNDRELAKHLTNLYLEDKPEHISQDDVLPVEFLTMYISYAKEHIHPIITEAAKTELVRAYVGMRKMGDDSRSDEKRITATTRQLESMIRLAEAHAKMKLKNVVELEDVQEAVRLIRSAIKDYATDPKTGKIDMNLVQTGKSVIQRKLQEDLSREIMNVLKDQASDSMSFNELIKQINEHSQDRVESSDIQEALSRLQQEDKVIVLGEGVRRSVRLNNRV

B1: Mcm5 lacking its C-terminus (subunit of MCM2-7-ΔC5) (domain or fragment, S. cerevisiae, UniProt P29496 1-692, looked up)
chain: MSFDRPEIYSAPVLQGESPNDDDNTEIIKSFKNFILEFRLDSQFIYRDQLRNNILVKNYSLTVNMEHLIGYNEDIYKKLSDEPSDIIPLFETAITQVAKRISILSRAQSANNNDKDPENTSMDTDSLLLNSLPTFQLILNSNANQIPLRDLDSEHVSKIVRLSGIIISTSVLSSRATYLSIMCRNCRHTTSITINNFNSITGNTVSLPRSCLSTIESESSMANESNIGDESTKKNCGPDPYIIIHESSKFIDQQFLKLQEIPELVPVGEMPRNLTMTCDRYLTNKVIPGTRVTIVGIYSIYNSKNGAGSGRSGGGNGGSGVAIRTPYIKILGIQSDVETSSIWNSVTMFTEEEEEEFLQLSRNPKLYEILTNSIAPSIFGNEDIKKAIVCLLMGGSKKILPDGMRLRGDINVLLLGDPGTAKSQLLKFVEKVSPIAVYTSGKGSSAAGLTASVQRDPMTREFYLEGGAMVLADGGVVCIDEFDKMRDEDRVAIHEAMEQQTISIAKAGITTVLNSRTSVLAAANPIYGRYDDLKSPGDNIDFQTTILSRFDMIFIVKDDHNEERDISIANHVINIHTGNANAMQNQQEENGSEISIEKMKRYITYCRLKCAPRLSPQAAEKLSSNFVTIRKQLLINELESTERSSIPITIRQLEAIIRITESLAKLELSPIAQERHVDEAIRLFQASTMDAA
notes: Mcm5, S. cerevisiae, deletion of residues 693-775 (C5); also called mcm5ΔC5; mcm5 (Δ693-775); source: S. cerevisiae, galactose-induced, purified as a subunit of MCM2-7-ΔC5 (anti-HA beads, HA peptide, gel filtration)
binding result (Mcm3 (HA-tagged)): binds

B2: Orc3 (natural protein)
chain: MSDLNQSKKMNVSEFADAQRSHYTVYPSLPQSNKNDKHIPFVKLLSGKESEVNVEKRWELYHQLHSHFHDQVDHIIDNIEADLKAEISDLLYSETTQKRRCFNTIFLLGSDSTTKIELKDESSRYNVLIELTPKESPNVRMMLRRSMYKLYSAADAEEHPTIKYEDINDEDGDFTEQNNDVSYDLSLVENFKRLFGKDLAMVFNFKDVDSINFNTLDNFIILLKSAFKYDHVKISLIFNINTNLSNIEKNLRQSTIRLLKRNYHKLDVSSNKGFKYGNQIFQSFLDTVDGKLNLSDRFVEFILSKMANNTNHNLQLLTKMLDYSLMSYFFQNAFSVFIDPVNVDFLNDDYLKILSRCPTFMFFVEGLIKQHAPADEILSLLTNKNRGLEEFFVEFLVRENPINGHAKFVARFLEEELNITNFNLIELYHNLLIGKLDSYLDRWSACKEYKDRLHFEPIDTIFQELFTLDNRSGLLTQSIFPSYKSNIEDNLLSWEQVLPSLDKENYDTLSGDLDKIMAPVLGQLFKLYREANMTINIYDFYIAFRETLPKEEILNFIRKDPSNTKLLELAETPDAFDKVALILFMQAIFAFENMGLIKFQSTKSYDLVEKCVWRGI
notes: Orc3; subunit of ORC; source: Hi-5 cells, baculovirus, purified as a subunit of ORC
binding result (Mcm5): binds

B3: Cdc6 (natural protein)
chain: MSAIPITPTKRIRRNLFDDAPATPPRPLKRKKLQFTDVTPESSPEKLQFGSQSIFLRTKALLQKSSELVNLNSSDGALPARTAEYEQVMNFLAKAISEHRSDSLYITGPPGTGKTAQLDMIIRQKFQSLPLSLSTPRSKDVLRHTNPNLQNLSWFELPDGRLESVAVTSINCISLGEPSSIFQKIFDSFQDLNGPTLQIKNMQHLQKFLEPYHKKTTFVVVLDEMDRLLHANTSETQSVRTILELFLLAKLPTVSFVLIGMANSLDMKDRFLSRLNLDRGLLPQTIVFQPYTAEQMYEIVIQKMSSLPTIIFQPMAIKFAAKKCAGNTGDLRKLFDVLRGSIEIYELEKRFLLSPTRGSLNSAQVPLTPTTSPVKKSYPEPQGKIGLNYIAKVFSKFVNNNSTRTRIAKLNIQQKLILCTIIQSLKLNSDATIDESFDHYIKAITKTDTLAPLQRNEFLEICTILETCGLVSIKKTKCKGKTKRFVDKIDVDLDMREFYDEMTKISILKPFLH
notes: Cdc6; also called WT Cdc6; source: E. coli BL21 codon-plus, purified (glutathione-agarose, PreScission Protease, hydroxyapatite)
binding result [1]: binds | binding result (MCM2-7 (wild type)): binds | binding result (MCM2-7-ΔC5): binds

B4: Mcm7 (natural protein, S. cerevisiae)
chain: MSAALPSIQLPVDYNNLFNEITDFLVTFKQDTLSSDATRNENEDENLDAENIEQHLLEKGPKYMAMLQKVANRELNSVIIDLDDILQYQNEKFLQGTQADDLVSAIQQNANHFTELFCRAIDNNMPLPTKEIDYKDDVLDVILNQRRLRNERMLSDRTNEIRSENLMDTTMDPPSSMNDALREVVEDETELFPPNLTRRYFLYFKPLSQNCARRYRKKAISSKPLSVRQIKGDFLGQLITVRGIITRVSDVKPAVEVIAYTCDQCGYEVFQEVNSRTFTPLSECTSEECSQNQTKGQLFMSTRASKFSAFQECKIQELSQQVPVGHIPRSLNIHVNGTLVRSLSPGDIVDVTGIFLPAPYTGFKALKAGLLTETYLEAQFVRQHKKKFASFSLTSDVEERVMELITSGDVYNRLAKSIAPEIYGNLDVKKALLLLLVGGVDKRVGDGMKIRGDINVCLMGDPGVAKSQLLKAICKISPRGVYTTGKGSSGVGLTAAVMKDPVTDEMILEGGALVLADNGICCIDEFDKMDESDRTAIHEVMEQQTISISKAGINTTLNARTSILAAANPLYGRYNPRLSPLDNINLPAALLSRFDILFLMLDIPSRDDDEKLAEHVTYVHMHNKQPDLDFTPVEPSKMREYIAYAKTKRPVMSEAVNDYVVQAYIRLRQDSKREMDSKFSFGQATPRTLLGIIRLSQALAKLRLADMVDIDDVEEALRLVRVSKESLYQETNKSKEDESPTTKIFTIIKKMLQETGKNTLSYENIVKTVRLRGFTMLQLSNCIQEYSYLNVWHLINEGNTLKFVDDGTMDTDQEDSLVSTPKLAPQTTASANVSAQDSDIDLQDA
notes: Mcm7, S. cerevisiae; subunit of the MCM2-7 hexamer; source: S. cerevisiae, galactose-induced, purified as a subunit of MCM2-7 (anti-HA beads, HA peptide, gel filtration)
binding result (Mcm3 (HA-tagged)): binds | binding result (Mcm4): binds
